According to US20260265358A1 (BYOMASS, published 2026):
Residue numbers refer to the chain shown, from its start.

T1: Human GDF10 (human, UniProt P55107 369-478)
T1 sequence (looked up): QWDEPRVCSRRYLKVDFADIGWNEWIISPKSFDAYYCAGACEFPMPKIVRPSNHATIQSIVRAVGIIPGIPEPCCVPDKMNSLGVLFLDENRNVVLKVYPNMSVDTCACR

T2: Activin B (UniProt P09529 293-407)
T2 sequence (looked up): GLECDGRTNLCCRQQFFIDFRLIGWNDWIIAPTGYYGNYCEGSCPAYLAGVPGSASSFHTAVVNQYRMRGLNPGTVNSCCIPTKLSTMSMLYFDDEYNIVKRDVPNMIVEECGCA

T3: Human GDNF (human, UniProt P39905 78-211)
T3 sequence (looked up): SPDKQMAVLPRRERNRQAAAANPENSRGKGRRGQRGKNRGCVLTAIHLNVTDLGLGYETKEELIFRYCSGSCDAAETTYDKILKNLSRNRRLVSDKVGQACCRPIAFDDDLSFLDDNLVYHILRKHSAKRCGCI

T4: BMP10 (UniProt O95393 317-424)
T4 sequence (looked up): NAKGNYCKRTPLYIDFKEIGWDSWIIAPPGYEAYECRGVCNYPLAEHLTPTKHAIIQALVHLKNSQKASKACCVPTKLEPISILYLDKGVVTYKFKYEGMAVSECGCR

T5: GDF15 Fc (UniProt Q99988 197-308, limits assumed)
T5 construct: not shown: Fc part
T5 sequence (looked up): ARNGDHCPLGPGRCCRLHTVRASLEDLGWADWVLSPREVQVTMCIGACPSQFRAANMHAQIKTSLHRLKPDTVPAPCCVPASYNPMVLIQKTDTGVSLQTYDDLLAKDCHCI

T6: BMP9 (UniProt Q9UK05 320-429)
T6 sequence (looked up): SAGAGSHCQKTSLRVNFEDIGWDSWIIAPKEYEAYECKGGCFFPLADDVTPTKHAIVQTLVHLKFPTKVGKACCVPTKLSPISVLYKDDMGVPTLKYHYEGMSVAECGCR

T7: Human Activin A Fc (human, UniProt P03970 309-424 (pig entry))
T7 construct: also called human Activin A-Fc fusion; human Activin A-Fc antigen; not shown: Fc part
T7 sequence: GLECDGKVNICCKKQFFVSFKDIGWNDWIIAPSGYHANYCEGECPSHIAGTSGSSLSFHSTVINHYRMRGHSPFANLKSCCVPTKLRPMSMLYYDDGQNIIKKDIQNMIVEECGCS

T8: Activin A (ligand of the Activin 2B Receptor/SMAD reporter assay) (UniProt P08476 311-426)
T8 sequence (looked up): T7 sequence

B1: anti-Activin A antibody Clone R (IgG) (antibody, V domains shown)
VH: QVQLVQSGAEVKKPGSSVKVSCKASGGSFSPYTISWVRQAPGQGLEWMGGIILTSGTANYAQKFQGRVTITADESTSTAYMELSSLRSEDTAVYYCARGGPLSGWRASYYYWGQGTLVTVSS
VL: not shown
notes: IgG format; also called Antibody R
B2: anti-Activin A antibody Clone P (IgG) (antibody, V domains shown)
VH: QVQLVQSGAEVKKPGSSVKVSCKASGGTFDDYAISWVRQAPGQGLEWMGGIIPRFGIANYAQKFQGRVTITADESTSTAYMELSSLRSEDTAVYYCARPPSSGSDWGQGTLVTVSS
VL: DIQMTQSPSSVSASVGDRVTITCRASQGIDSWLAWYQQKPGKAPKLLIYAASSLQSGVPSRFSGSGSGTDFTLTISSLQPEDFATYYCQQVHSFPITFGGGTKVEIKR
notes: IgG format; also called Antibody P
B3: anti-Activin A antibody Clone C (IgG) (antibody, V domains shown)
VH: QVQLVQSGAEVKKPGASVKVSCKASGYTFPGYHMHWVRQAPGQGLEWMGVINPSSGDTNYAQKFQGRVTMTRDTSISTAYMELSRLRSDDTAVYYCARARDIAALGLGAFDYWGQGTLVTVSS
VL: EIVLTQSPGTLSLSPGERATLSCRASQSVSSSYLAWYQQKPGQAPRLLIYGASSRAGGIPDRFSGSGSGTDFTLTISRLEPEDFAVYYCQQYVAYPRTFGGGTKVEIKR
notes: IgG format
B4: anti-Activin A antibody Clone J (IgG) (antibody, V domains shown)
VH: EVQLVQSGAEVKKPGSSVKVSCKASGGTFSLYAISWVRQAPGQGLEWMGGIIPYFGTANYAQKFQGRVTITADESTSTAYMELSSLRSEDTAVYYCARGGSGYSTSWGSSLYWGQGTLVTVSS
VL: B3 VL with S53F, G57T, Y92S, V93G, A94V, Y95F, R97Y
B5: anti-Activin A antibody Clone D (IgG) (antibody, V domains shown)
VH: B3 VH with P30F, H33S
VL: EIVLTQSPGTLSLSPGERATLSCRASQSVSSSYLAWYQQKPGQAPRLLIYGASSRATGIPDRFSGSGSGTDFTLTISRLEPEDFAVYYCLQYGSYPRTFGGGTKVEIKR
notes: IgG format; also called Antibody D
B6: anti-Activin A antibody Clone F (IgG) (antibody, V domains shown)
VH: QVQLVQSGAEVKKPGASVKVSCKASGYTFTGYHIHWVRQVPGQGLEWMGVISAYSGDTNYAQKLQGRVTMTTDTSTSTAYMELRSLRSDDTAVYYCARARDIAALGLGAFDYWGQGTLVTVSS
VL: EIVLTQSPATLSVSPGERATLSCRASQSVSSNLAWYQQKPGQAPRLLIYGASDRATGIPARFSGSGSGTEFTLTISSLQSEDFAVYYCIQYSNYPRTFGGGTKVEIKR
notes: IgG format; also called Antibody F
B7: anti-Activin A antibody Clone M (IgG) (antibody, V domains shown)
VH: QLQLQESGPGLVKPSETLSLTCTVSGGSISSSDYYWGWIRQPPGKGLEWIGSIYYPANTYYNPSLKSRVTISVDTSKNQFSLKLSSVTAADTAVYYCARGYWNYGMDVWGQGTTVTVSS
VL: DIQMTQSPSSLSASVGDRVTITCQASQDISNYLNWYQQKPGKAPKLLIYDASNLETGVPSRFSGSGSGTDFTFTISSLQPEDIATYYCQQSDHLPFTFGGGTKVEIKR
notes: IgG format; also called Antibody M
B8: anti-Activin A antibody Clone N (IgG) (antibody, V domains shown)
VH: B7 VH with N58S
VL: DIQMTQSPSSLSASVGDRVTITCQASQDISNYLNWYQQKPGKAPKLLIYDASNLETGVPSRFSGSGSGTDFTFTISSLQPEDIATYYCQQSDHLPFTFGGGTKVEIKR
notes: IgG format; also called Antibody N
B9: anti-Activin A antibody Clone O (IgG) (antibody, V domains shown)
VH: QVQLVQSGAEVKKPGSSVKVSCKASGGTFSNYDINWVRQAPGQGLEWMGGIIPVFGTAAYAQKFQGRVTITADESTSTAYMELSSLRSEDTAVYYCAREARDGYRYAFQHWGQGTLVTVSS
VL: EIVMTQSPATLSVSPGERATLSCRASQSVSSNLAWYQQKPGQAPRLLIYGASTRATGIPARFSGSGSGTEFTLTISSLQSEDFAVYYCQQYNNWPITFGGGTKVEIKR
notes: IgG format; also called Antibody O

Experiments:
Human GDF10 = biological target: T1, Human GDF10; assay: Octet BLI, IgG, avid
Activin B [1] = biological target: T2, Activin B; assay: Octet BLI, IgG, avid
Human GDNF = biological target: T3, Human GDNF; assay: Octet BLI, IgG, avid
BMP10 = biological target: T4, BMP10; assay: Octet BLI, IgG, avid
Human GDF11 = Human GDF11 (human, UniProt O95390 299-407); assay: Octet BLI, IgG, avid
GDF15 Fc = biological target: T5, GDF15 Fc; assay: Octet BLI, IgG, avid
BMP9 = biological target: T6, BMP9; assay: Octet BLI, IgG, avid
Human GDF8 = Human GDF8 (human, UniProt O14793 267-375); assay: Octet BLI, IgG, avid
Human Activin A Fc = biological target: T7, Human Activin A Fc; assay: Octet BLI, IgG, avid
Procedure: ForteBio affinity measurements were performed on an Octet HTX generally as previously described (see, e.g., Estep et al, Mabs 5(2), 270-278 (2013)). Briefly, ForteBio affinity measurements were performed by loading IgGs on-line onto AHC sensors. Sensors were equilibrated off-line in assay buffer for 30 min and then monitored on-line for 60 seconds for baseline establishment. Sensors with loaded IgGs were exposed to 100 nM antigen for 3 minutes, and afterwards were transferred to assay buffer for 3 min for off-rate measurement. All kinetics were analyzed using the 1:1 binding model.
Binding affinity and epitope binning assays were performed with a ForteBio instrument as described herein.

Activin B [2] = biological target: T2, Activin B; assay: cell-based or functional assay
[3] = biological target: T8, Activin A (ligand of the Activin 2B …); assay: cell-based or functional assay

Chain of Human GDF11 (O95390 299-407 limits assumed): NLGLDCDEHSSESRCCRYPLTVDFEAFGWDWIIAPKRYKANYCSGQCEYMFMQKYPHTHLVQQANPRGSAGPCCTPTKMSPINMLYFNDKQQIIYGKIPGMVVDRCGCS

Binder | binding result (Human GDF10) | binding result (Activin B [1]) | binding result (Human GDNF) | binding result (BMP10) | binding result (Human GDF11) | binding result (GDF15 Fc) | binding result (BMP9) | binding result (Human GDF8) | Kd (Human Activin A Fc) | Kd (Activin B [1]) | Kd (Human GDF11) | Activin B-ActRIIB SMAD IC50 pM (Activin B [2]) | Activin A-ActRIIB SMAD IC50 pM [3]
B1 | no binding (tested: 100 nM antigen) | no binding (tested: 100 nM antigen) | no binding (tested: 100 nM antigen) | no binding (tested: 100 nM antigen) | no binding (tested: 100 nM antigen) | no binding (tested: 100 nM antigen) | no binding (tested: 100 nM antigen) | no binding (tested: 100 nM antigen) | 0.6 nM | – | – | – | –
B2 | no binding (tested: 100 nM antigen) | – | no binding (tested: 100 nM antigen) | no binding (tested: 100 nM antigen) | no binding (tested: 100 nM antigen) | no binding (tested: 100 nM antigen) | no binding (tested: 100 nM antigen) | no binding (tested: 100 nM antigen) | 1.28 nM | – | – | – | –
B3 | no binding (tested: 100 nM antigen) | – | no binding (tested: 100 nM antigen) | no binding (tested: 100 nM antigen) | – | no binding (tested: 100 nM antigen) | no binding (tested: 100 nM antigen) | no binding (tested: 100 nM antigen) | 0.477 nM | 148 nM | 12.7 nM | > 100000 pM | –
B4 | – | – | – | – | – | – | – | – | – | – | – | – | 41.7 pM
B5 | no binding (tested: 100 nM antigen) | – | no binding (tested: 100 nM antigen) | no binding (tested: 100 nM antigen) | – | no binding (tested: 100 nM antigen) | no binding (tested: 100 nM antigen) | no binding (tested: 100 nM antigen) | 0.515 nM | 153 nM | 23.4 nM | – | –
B6 | no binding (tested: 100 nM antigen) | – | no binding (tested: 100 nM antigen) | no binding (tested: 100 nM antigen) | – | no binding (tested: 100 nM antigen) | no binding (tested: 100 nM antigen) | no binding (tested: 100 nM antigen) | 0.492 nM | 80.1 nM | 18.7 nM | 24900 pM | –
B7 | no binding (tested: 100 nM antigen) | – | no binding (tested: 100 nM antigen) | no binding (tested: 100 nM antigen) | no binding (tested: 100 nM antigen) | no binding (tested: 100 nM antigen) | no binding (tested: 100 nM antigen) | no binding (tested: 100 nM antigen) | 1 nM | 9.58 nM | – | – | 719 pM
B8 | no binding (tested: 100 nM antigen) | – | no binding (tested: 100 nM antigen) | no binding (tested: 100 nM antigen) | no binding (tested: 100 nM antigen) | no binding (tested: 100 nM antigen) | no binding (tested: 100 nM antigen) | no binding (tested: 100 nM antigen) | 1.26 nM | 6.98 nM | – | – | 241 pM
B9 | no binding (tested: 100 nM antigen) | no binding (tested: 100 nM antigen) | no binding (tested: 100 nM antigen) | no binding (tested: 100 nM antigen) | no binding (tested: 100 nM antigen) | no binding (tested: 100 nM antigen) | no binding (tested: 100 nM antigen) | no binding (tested: 100 nM antigen) | 0.442 nM | – | – | – | 5400 pM
